The values that follow come from IntAct's records for PubMed 30523278.

Sequences and labels used below:
B1: Protein amnionless (Homo sapiens), Q9BXJ7 (parent)
chain: MGVLGRVLLWLQLCALTQAVSKLWVPNTDFDVAANWSQNRTPCAGGAVEFPADKMVSVLVQEGHAVSDMLLPLDGELVLASGAGFGVSDVGSHLDCGAGEPAVFRDSDRFSWHDPHLWRSGDEAPGLFFVDAERVPCRHDDVFFPPSASFRVGLGPGASPVRVRSISALGRTFTRDEDLAVFLASRAGRLRFHGPGALSVGPEDCADPSGCVCGNAEAQPWICAALLQPLGGRCPQAACHSALRPQGQCCDLCGAVVLLTHGPAFDLERYRARILDTFLGLPQYHGLQVAVSKVPRSSRLREADTEIQVVLVENGPETGGAGRLARALLADVAENGEALGVLEATMRESGAHVWGSSAAGLAGGVAAAVLLALLVLLVAPPLLRRAGRLRWRRHEAAAPAGAPLGFRNPVFDVTASEELPLPRRLSLVPKAAADSTSHSYFVNPLFAGAEAEA

The first test covers variants of B1. The note with it: with cubn_human CUBN.
Regarding MGVLGRVLLWLQLCALTQAVSKLWVPNTDFDVAANWSQNRTPCAGGAVEFPADKMVSVLVQEGHAVSDKLLPLDGELVLASGAGFGVSDVGSHLDCGAGEPAVFRDSDRFSWHDPHLWRSGDEAPGLFFVDAERVPCRHDDVFFPPSASFRVGLGPGASPVRVRSISALGRTFTRDEDLAVFLASRAGRLRFHGPGALSVGPEDCADPSGCVCGNAEAQPWICAALLQPLGGRCPQAACHSALRPQGQCCDLCGAVVLLTHGPAFDLERYRARILDTFLGLPQYHGLQVAVSKVPRSSRLREADTEIQVVLVENGPETGGAGRLARALLADVAENGEALGVLEATMRESGAHVWGSSAAGLAGGVAAAVLLALLVLLVAPPLLRRAGRLRWRRHEAAAPAGAPLGFRNPVFDVTASEELPLPRRLSLVPKAAADSTSHSYFVNPLFAGAEAEA [M69K], the “effect of a mutation on the interaction” value is “disrupting interaction strength”.

Consider MGVLGRVLLWLQLCALTQAVSKLWVPNTDFDVAANWSQNRTPCAGGAVEFPADKMVSVLVQEGHAVSDMLLPLDGELVLASGAGFGVSDVGSHLDCGAGEPAVFRDSDRFSWHDPHLWRSGDEAPGLFFVDAERVPCRHDDVFFPPSASFRVGLGPGASPVRVRSISALGRTFTRDEDLAVFLASRAGRLRFHGPGALSVGPEDCADPSGCVCGNAEAQPWICAALLQPLGGRFPQAACHSALRPQGQCCDLCGAVVLLTHGPAFDLERYRARILDTFLGLPQYHGLQVAVSKVPRSSRLREADTEIQVVLVENGPETGGAGRLARALLADVAENGEALGVLEATMRESGAHVWGSSAAGLAGGVAAAVLLALLVLLVAPPLLRRAGRLRWRRHEAAAPAGAPLGFRNPVFDVTASEELPLPRRLSLVPKAAADSTSHSYFVNPLFAGAEAEA [C234F], for which the “effect of a mutation on the interaction” value was “disrupting interaction strength”.

Turning to MGVLGRVLLWLQLCALTQAVSKLWVPNTDFDVAANWSQNRTPCAGGAVEFPADKMVSVLVQEGHAVSDMLLPLDGELVLASGAGFGVSDVGSHLDCGAGEPAVFRDSDRFSWHDPHLWRSGDEAPGLFFVDAERVPCRHDDVFFPPSASFRVGLGPGASPVRVRSISALGRTFTRDEDLAVFLASRAGRLRFHGPGALSVGPEDCADPSGCVCGNAEAQPWICAALLQPLGGRCPQAACHSALRPQGQCCDLCEAVVLLTHGPAFDLERYRARILDTFLGLPQYHGLQVAVSKVPRSSRLREADTEIQVVLVENGPETGGAGRLARALLADVAENGEALGVLEATMRESGAHVWGSSAAGLAGGVAAAVLLALLVLLVAPPLLRRAGRLRWRRHEAAAPAGAPLGFRNPVFDVTASEELPLPRRLSLVPKAAADSTSHSYFVNPLFAGAEAEA [G254E], the “effect of a mutation on the interaction” value was “disrupting interaction strength”.

Consider MGVLGRVLLWLQLCALTQAVSKLWVPNTDFDVAANWSQNRTPCAGGAVEFPADKMVSVPVQEGHAVSDMLLPLDGELVLASGAGFGVSDVGSHLDCGAGEPAVFRDSDRFSWHDPHLWRSGDEAPGLFFVDAERVPCRHDDVFFPPSASFRVGLGPGASPVRVRSISALGRTFTRDEDLAVFLASRAGRLRFHGPGALSVGPEDCADPSGCVCGNAEAQPWICAALLQPLGGRCPQAACHSALRPQGQCCDLCGAVVLLTHGPAFDLERYRARILDTFLGLPQYHGLQVAVSKVPRSSRLREADTEIQVVLVENGPETGGAGRLARALLADVAENGEALGVLEATMRESGAHVWGSSAAGLAGGVAAAVLLALLVLLVAPPLLRRAGRLRWRRHEAAAPAGAPLGFRNPVFDVTASEELPLPRRLSLVPKAAADSTSHSYFVNPLFAGAEAEA [L59P], for which the “effect of a mutation on the interaction” value is on record as “disrupting interaction strength”.

The variants in another test derive from B1. The note with it: with cubn_human CUBN. The source holds these as a separate data set.
Take MGVLGRVLLWLQLCALTQAVSKLWVPNTDFDVAANWAQNRTPCAGGAVEFPADKMVSVLVQEGHAVSDMLLPLDGELVLASGAGFGVSDVGSHLDCGAGEPAVFRDSDRFSWHDPHLWRSGDEAPGLFFVDAERVPCRHDDVFFPPSASFRVGLGPGASPVRVRSISALGRTFTRDEDLAVFLASRAGRLRFHGPGALSVGPEDCADPSGCVCGNAEAQPWICAALLQPLGGRCPQAACHSALRPQGQCCDLCGAVVLLTHGPAFDLERYRARILDTFLGLPQYHGLQVAVSKVPRSSRLREADTEIQVVLVENGPETGGAGRLARALLADVAENGEALGVLEATMRESGAHVWGSSAAGLAGGVAAAVLLALLVLLVAPPLLRRAGRLRWRRHEAAAPAGAPLGFRNPVFDVTASEELPLPRRLSLVPKAAADSTSHSYFVNPLFAGAEAEA [S37A]: the “effect of a mutation on the interaction” value is given as “with no effect”.

In the case of MGVLGRVLLWLQLCALTQAVSKLWVPNTDFDVAAQWSQNRIPCAGGAVEFPADKMVSVLVQEGHAVSDMLLPLDGELVLASGAGFGVSDVGSHLDCGAGEPAVFRDSDRFSWHDPHLWRSGDEAPGLFFVDAERVPCRHDDVFFPPSASFRVGLGPGASPVRVRSISALGRTFTRDEDLAVFLASRAGRLRFHGPGALSVGPEDCADPSGCVCGNAEAQPWICAALLQPLGGRCPQAACHSALRPQGQCCDLCGAVVLLTHGPAFDLERYRARILDTFLGLPQYHGLQVAVSKVPRSSRLREADTEIQVVLVENGPETGGAGRLARALLADVAENGEALGVLEATMRESGAHVWGSSAAGLAGGVAAAVLLALLVLLVAPPLLRRAGRLRWRRHEAAAPAGAPLGFRNPVFDVTASEELPLPRRLSLVPKAAADSTSHSYFVNPLFAGAEAEA [N35Q;T41I], the “effect of a mutation on the interaction” value is given as “disrupting interaction strength”.

For the variant MGVLGRVLLWLQLCALTQAVSKLWVPNTDFDVAAQWSQNRTPCAGGAVEFPADKMVSVLVQEGHAVSDMLLPLDGELVLASGAGFGVSDVGSHLDCGAGEPAVFRDSDRFSWHDPHLWRSGDEAPGLFFVDAERVPCRHDDVFFPPSASFRVGLGPGASPVRVRSISALGRTFTRDEDLAVFLASRAGRLRFHGPGALSVGPEDCADPSGCVCGNAEAQPWICAALLQPLGGRCPQAACHSALRPQGQCCDLCGAVVLLTHGPAFDLERYRARILDTFLGLPQYHGLQVAVSKVPRSSRLREADTEIQVVLVENGPETGGAGRLARALLADVAENGEALGVLEATMRESGAHVWGSSAAGLAGGVAAAVLLALLVLLVAPPLLRRAGRLRWRRHEAAAPAGAPLGFRNPVFDVTASEELPLPRRLSLVPKAAADSTSHSYFVNPLFAGAEAEA [N35Q], the “effect of a mutation on the interaction” value is “disrupting interaction strength”.

Regarding MGVLGRVLLWLQLCALTQAVSKLWVPNTDFDVAANWAQNRIPCAGGAVEFPADKMVSVLVQEGHAVSDMLLPLDGELVLASGAGFGVSDVGSHLDCGAGEPAVFRDSDRFSWHDPHLWRSGDEAPGLFFVDAERVPCRHDDVFFPPSASFRVGLGPGASPVRVRSISALGRTFTRDEDLAVFLASRAGRLRFHGPGALSVGPEDCADPSGCVCGNAEAQPWICAALLQPLGGRCPQAACHSALRPQGQCCDLCGAVVLLTHGPAFDLERYRARILDTFLGLPQYHGLQVAVSKVPRSSRLREADTEIQVVLVENGPETGGAGRLARALLADVAENGEALGVLEATMRESGAHVWGSSAAGLAGGVAAAVLLALLVLLVAPPLLRRAGRLRWRRHEAAAPAGAPLGFRNPVFDVTASEELPLPRRLSLVPKAAADSTSHSYFVNPLFAGAEAEA [S37A;T41I], the “effect of a mutation on the interaction” value is on record as “with no effect”.

Consider MGVLGRVLLWLQLCALTQAVSKLWVPNTDFDVAANWSQNRIPCAGGAVEFPADKMVSVLVQEGHAVSDMLLPLDGELVLASGAGFGVSDVGSHLDCGAGEPAVFRDSDRFSWHDPHLWRSGDEAPGLFFVDAERVPCRHDDVFFPPSASFRVGLGPGASPVRVRSISALGRTFTRDEDLAVFLASRAGRLRFHGPGALSVGPEDCADPSGCVCGNAEAQPWICAALLQPLGGRCPQAACHSALRPQGQCCDLCGAVVLLTHGPAFDLERYRARILDTFLGLPQYHGLQVAVSKVPRSSRLREADTEIQVVLVENGPETGGAGRLARALLADVAENGEALGVLEATMRESGAHVWGSSAAGLAGGVAAAVLLALLVLLVAPPLLRRAGRLRWRRHEAAAPAGAPLGFRNPVFDVTASEELPLPRRLSLVPKAAADSTSHSYFVNPLFAGAEAEA [T41I], for which the “effect of a mutation on the interaction” value is reported as “with no effect”.
